US20240132599A1 (GAMMADELTA THERAPEUTICS, published 2024)
Positions count from the first letter of the chain named. Each block holds one binder with its values, some of them ahead of it.

Assays:
[1] = target: T1, human EGFR, recombinant protein (human, UniProt P00533 25-645); assay: SPR
T1 construct: Bought protein; also called human EGFR antigen

[2] = target: T2, L1 (DV1-GV4), recombinant soluble human Vδ1/Vγ4 γδ TCR heterodimer (human); assay: SPR (Reichert 4SPR): antibody on a Protein A chip, human Vδ1 antigen flowed; column 'Affinity to Vδ1 (nM)'
T2 construct: Biotinylated in the DELFIA ranking assay; also called human TRDV1; human Vδ1 antigen
Procedure: Human Vδ1 antigen was flown over the cell at a 1:3 dilution series with top concentrations of 50 nM with the following parameters: 180s association, 900s dissociation, flow rate 25 μL/min, running buffer PBS+0.05% Tween-20. The chip surface was regenerated using 20 mM phosphoric acid following each injection. All experiments were performed at room temperature. Steady state fitting was determined according to Langmuir 1:1 binding using TraceDrawer software (Reichert Technologies.

[3] = target: T3, Vδ1 TCR on human Vδ1-positive γδ T cells (human, UniProt A0A1B0GX56 22-115); assay: flow cytometry on skin-derived Vδ1+ cells, 20 min at 4 C, anti-human Fc secondary
T3 construct: also called Vδ1 γδ T-cells; cell surface Vδ1 TCR
Procedure: Cells were washed and stained with an anti-human Fc secondary antibody (Jackson Immunoresearch) and a viability dye for dead cells (eFlour 780, Invitrogen) for 20 minutes at 4° C. The cells were washed in FACS buffer and resuspended in Cell Fix (BD sciences) before analysis on a MACSQuant Analyser 10 flow cytometer (Miltenyi).

[4] = target: T2, L1 (DV1-GV4), recombinant soluble human …; assay: SPR
[5] = target: T3, Vδ1 TCR on human Vδ1-positive γδ T cells; assay: flow cytometry on primary Vδ1 γδ T cells, 4 C, anti-human IgG-APC secondary, median fluorescence
Procedure: Target cells were stained with varying concentrations of antibody, followed by a fluorescent anti-human IgG detection antibody. All incubation steps were performed at 4° C. and mAb binding was determined using flow cytometry to measure the median level of fluorescence. Logarithmic four parameter dose-response curves were fitted using GraphPad Prism 9.
Target cells were detached from tissue culture flask, resuspended in PBS and seeded at a final density of 100,000 cells per well in v-bottom 96-well plates. Cells underwent centrifugation and the cell pellets were resuspended in FcR blocking reagent according to the manufacturer's instructions, and incubated for 20 minutes at 4C prior to a further wash. Antibodies were diluted to 500 nM in PBS and serially diluted 1:10 in PBS to 50 μM, and added to the cells, followed by a 20-minute incubation at 4C. To determine the quantity of mAb bound to the cell surface, the cells were then stained with a murine anti-human IgG secondary antibody, conjugated to APC (dilution: 1:100) in addition to a viability dye. Following 20-minute incubation at 4C, the cells were washed twice, and fluorescence measured using the MACSQuant.

EGFR on HT-29 cells = target: T4, EGFR on HT-29 cells (human, UniProt P00533); assay: flow cytometry on HT-29 cells, 20 min at 4 C, anti-human IgG secondary
T4 construct: full length, cell surface; also called EGFR+ colon cancer cell line HT-29; HT-29 tumour cell
Procedure: After washing, cells were incubated for a further 20 minutes with anti-human IgG secondary antibodies (Jackson Immunoresearch) and live/dead stain (eFluor 780, Invitrogen) before washing and fixing using CellFix. The amount of antibody bound to each cell type was determined using flow cytometry (MACSQuant Analyser 10, Miltenyi Biotech).

EGFR on A431 cells = target: T5, EGFR on A431 cells (human, UniProt P00533 25-1210); assay: EGF blockade by flow cytometry: A431 cells pre-incubated with antibody 30 min at 4 C, then EGF-AF647; EGF binding MFI
T5 construct: whole, on cells; also called EGFR-positive A431; EGFR+A431 target cells
Procedure: Cells were then incubated for 1 hour at 4 degrees C., washed and stained with Live/dead dye (eFluor 520, Fisher) and incubated for a further 20 min at 4 degrees. The cells were washed in FACS buffer and resuspended in Cell Fix (BD sciences) before incubating overnight at 4° C. in the dark.

[6] = target: T3, Vδ1 TCR on human Vδ1-positive γδ T cells; assay: flow cytometry binding to γδ T cells, Donor 2 (TS164); column head printed IC50 (nM), the text calls it EC50 of binding; same value in the table of FIG. 11C
Procedure: (§1) (FIGS. 11A-11B) The level of binding by the V61 mAbs to two γδ T cell donors, ATS006 (FIG. 11A) and TS164 (FIG. 11B). γδ T cells were stained with varying concentrations of Vδ1 mAbs, followed by a fluorescent anti-human IgG detection antibody (xxx). All incubation steps were performed at 4° C. and mAb binding was determined using flow cytometry to measure the median level of fluorescence. Logarithmic four parameter dose-response curves were fitted using GraphPad Prism 9.
(§2) A range of target cells were assayed to determine the specificity and affinity of Vδ1 mAb binding. This included expanded skin-derived Vδ1 γδ T-cells, HEK293T cells, Raji cells, and multiple leukocyte subsets within human primary blood mononuclear cells. Adherent or semi-adherent cells (skin-derived Vδ1 γδ T-cells, HEK293T) were detached from tissue culture flask and resuspended in PBS. Similarly, non-adherent cell types (Raji, PBMC), were harvested and resuspended in PBS. Cells were seeded at a final density of 100,000 cells per well in v-bottom 96-well plates. Cells underwent centrifugation and the cell pellets were resuspended in FcR blocking reagent according to the manufacturer's instructions, and incubated for 20 minutes at 4C prior to a further wash. […] To determine the quantity of mAb bound to the cell surface, the cells were then stained with a murine anti-human IgG secondary antibody, conjugated to APC (product code . . . , dilution: 1:100). For Vδ1 γδ T-cells, HEK293T and Raji, the cells were also stained solely with a viability dye.

[7] = target: T3, Vδ1 TCR on human Vδ1-positive γδ T cells; assay: flow cytometry binding to γδ T cells, Donor 1 (ATS006); column head printed IC50 (nM), the text calls it EC50 of binding; same value in the table of FIG. 11C
Procedure: as §1, §2

[8] = target: T2, L1 (DV1-GV4), recombinant soluble human …; assay: SPR (Reichert 4SPR), antibody on Protein A chip, human Vδ1 antigen as analyte, 1:1 fit, mean of two replicates (Avg KD)
Source text: The binding affinity of the antibodies to target (i.e. the Vδ1 chain of a γ TCR) is established by SPR analysis using a Reichert 4SPR instrument (Reichert Technologies).
The binding interaction of Vδ1 and the affinity-matured mAbs were modelled according to Langmuir 1:1 binding.

T3 sequence (A0A1B0GX56 22-115 limits assumed, stated change not applied): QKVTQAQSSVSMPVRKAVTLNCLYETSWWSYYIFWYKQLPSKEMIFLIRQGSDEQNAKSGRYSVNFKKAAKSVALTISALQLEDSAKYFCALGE
T2 sequence (main, as listed by the source): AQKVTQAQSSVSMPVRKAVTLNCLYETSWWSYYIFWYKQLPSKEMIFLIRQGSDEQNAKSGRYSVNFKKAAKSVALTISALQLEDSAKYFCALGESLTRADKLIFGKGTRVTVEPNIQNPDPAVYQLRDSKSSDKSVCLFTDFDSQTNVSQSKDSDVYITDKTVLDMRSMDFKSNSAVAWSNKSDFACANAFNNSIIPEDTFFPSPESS

Kd [1]: 0.655 nM | Kd [2]: 1.26 nM | EC50 [3]: 0.279 nM | EC95 [3]: 2.77 nM
B1: ADT1-4-6/ADT3-2 (bispecific antibody, V domains shown)
VH: EVQLQQSGPGLVKPSQTLSLTCAISGDSVSSKSAAWNWIRQSPSRGLEWLGRTYYRSKWSTDYAASVKSRITINPDTSKNQLSLQLNSVTPEDTAVYYCARTWAGYPDVWGQGTLVTVSS
VL: DIQMTQSPPALSASVGDRVTITCRASQDINDWLAWYQHKPGKAPKLLIYDASSLESGVPLRFSGSGSGTEFTLTISSLQPDDFATYYCQQKYKTPQVTFGQGTRLEIK
notes: mAb2, human IgG1; light constant region not tied; also called ADT1-4-6 × LEE

Kd [1]: 1.14 nM | Kd [4]: 152 nM
B2: ADT1-4/ADT3-1 (bispecific antibody, human IgG1, V domains shown)
VH: B1 VH with E1Q, A104S, P107V
VL: DIQMTQSPPALSASVGDRVTITCRASQDINDWLAWYQHKPGKAPKLLIYDASSLESGVPSRFSGSGSGTEFTLTISSLQPDDFATYYCQQSYSTPQVTFGQGTRLEIKR
notes: mAb2; also called G04 × FS1-67; G04 FS1-67

Kd [1]: 2.78 nM | Kd [2]: 18.3 nM | EC50 [3]: 0.209 nM | EC95 [3]: 2.25 nM
B3: ADT1-4-138/ADT3-2 (bispecific antibody, V domains shown)
VH: B1 VH with G105D, P107V
VL: B1 VL with L60S, K91R, K93S, P95D
notes: mAb2, human IgG1; light constant region not tied; also called ADT1-4-138 × LEE; ADT1-4-138xADT3-2

EC50 (read off the curve) [5]: ~0.8 nM | Kd [1]: 1.49 nM | EC50 (EGFR on HT-29 cells): 0.537 nM | Kd [2]: 0.24 nM | EC50 [3]: 0.276 nM | EC95 [3]: 2.7 nM | EC50 (EGFR on A431 cells): 2.92 nM
B4: ADT1-4-2/ADT3-2 (bispecific antibody)
heavy: EVQLQQSGPGLVKPSQTLSLTCAISGDSVSSKSAAWNWIRQSPSRGLEWLGRTYYRSKWSTDYAASVKSRITINPDTSKNQLSLQLNSVTPEDTAVYYCARTWVGYVDRWGQGTLVTVSSASTKGPSVFPLAPSSKSTSGGTAALGCLVKDYFPEPVTVSWNSGALTSGVHTFPAVLQSSGLYSLSSVVTVPSSSLGTQTYICNVNHKPSNTKVDKKVEPKSCDKTHTCPPCPAPELAGAPSVFLFPPKPKDTLMISRTPEVTCVVVDVSHEDPEVKFNWYVDGVEVHNAKTKPREEQYNSTYRVVSVLTVLHQDWLNGKEYKCKVSNKALPAPIEKTISKAKGQPREPQVYTLPPSRDELEEGPVSLTCLVKGFYPSDIAVEWESTYGPENNYKTTPPVLDSDGSFFLYSKLTVSYWRWYKGNVFSCSVMHEALHNHYTQKSLSLSPG
light: DIQMTQSPPALSASVGDRVTITCRASQDINDWLAWYQHKPGKAPKLLIYDASSLESGVPLRFSGSGSGTEFTLTISSLQPDDFATYYCQQKYSAPQVTFGQGTRLEIKRTVAAPSVFIFPPSDEQLKSGTASVVCLLNNFYPREAKVQWKVDNALQSGNSQESVTEQDSKDSTYSLSSTLTLSKADYEKHKVYACEVTHQGLSSPVTKSFNRGEC
notes: mAb2; also called ADT1-4-2 × LEE; ADT1-4-2xLEE

Kd [1]: 1.35 nM | Kd [4]: 0.464 nM
B5: ADT1-4-2/ADT3-3 (bispecific antibody, human IgG1, kappa)
heavy: EVQLQQSGPGLVKPSQTLSLTCAISGDSVSSKSAAWNWIRQSPSRGLEWLGRTYYRSKWSTDYAASVKSRITINPDTSKNQLSLQLNSVTPEDTAVYYCARTWVGYVDRWGQGTLVTVSSASTKGPSVFPLAPSSKSTSGGTAALGCLVKDYFPEPVTVSWNSGALTSGVHTFPAVLQSSGLYSLSSVVTVPSSSLGTQTYICNVNHKPSNTKVDKKVEPKSCDKTHTCPPCPAPELAGAPSVFLFPPKPKDTLMISRTPEVTCVVVDVSHEDPEVKFNWYVDGVEVHNAKTKPREEQYNSTYRVVSVLTVLHQDWLNGKEYKCKVSNKALPAPIEKTISKAKGQPREPQVYTLPPSRDELDEGGPVSLTCLVKGFYPSDIAVEWESTYGPENNYKTTPPVLDSDGSFFLYSKLTVSYWRWVKGNVFSCSVMHEALHNHYTQKSLSLSPG
light: B4 light
notes: also called ADT1-4-2xFS1-65

Kd [1]: 1.37 nM | Kd [4]: 0.378 nM
B6: ADT1-4-2/ADT3-1 (bispecific antibody)
heavy: B4 heavy with L361T, E362D, E363D
light: B4 light
notes: mAb2; also called ADT1-4-2xFS1-67

Kd [1]: 19.2 nM | Kd [4]: 0.818 nM
B7: ADT1-4-2/ADT3-6 (bispecific antibody)
heavy: B4 heavy with T387N, Y388G, G389Q
light: B4 light
notes: mAb2; also called ADT1-4-2xLEE2

Kd [1]: 8.63 nM | Kd [4]: 0.462 nM | EC50 (EGFR on A431 cells): 8.66 nM
B8: ADT1-4-2/ADT3-7 (bispecific antibody)
heavy: B4 heavy with Y421Q, K422Q
light: B4 light
notes: mAb2; also called ADT1-4-2xLEE3

Kd [1]: 2.35 nM | Kd [4]: 0.511 nM
B9: ADT1-4-2/ADT3-4 (bispecific antibody)
heavy: B4 heavy with L361T, E363S, A381V, T387K, Y388F, Y417N, W418L, Y421T, N424H
light: B4 light
notes: mAb2; also called ADT1-4-2x747

EC50 [6]: 226 nM | EC50 [7]: > 100 nM | Kd [8]: 38.1 nM
B10: ADT1-7 (parental) (antibody, IgG1, V domains shown)
VH: QVQLVESGGGLVKPGGSLRLSCAASGFTFSDYYMSWIRQAPGKGLEWVSYISSSGSTIYYADSVKGRFTISRDNAKNSLYLQMNSLRAEDTAVYYCARVDYADAFDIWGQGTLVTVSS
VL: DIQMTQSPSSLSASVGDRVTIACRAGQSIGTYLNWYQQKPGKAPKLLIYVASSLQSGVPSRFSGSGSGTEFTLTISSLQPEDFATYYCQQSYSTLLTFGRGTKVEIK
notes: IgG1; also called E07; 1245_P01_E07

EC50 [6]: 2.68 nM | EC50 [7]: 37.2 nM | Kd [8]: 4.99 nM
B11: ADT1-7-20 (antibody, IgG1, V domains shown)
VH: B10 VH with Q1E, A102Q, D103E
VL: B10 VL with T94G, L96D
notes: IgG1

EC50 [6]: 0.952 nM | EC50 [7]: 5.15 nM | Kd [8]: 3.78 nM
B12: ADT1-7-3 (antibody, IgG1, V domains shown)
VH: B10 VH with Q1E, D100S, D103E
VL: B10 VL with T94G, L96D
notes: IgG1

EC50 [6]: 196 nM | EC50 [7]: 93 nM | Kd [8]: 1.04 nM
B13: ADT1-7-61 (antibody, IgG1, V domains shown)
VH: B10 VH with Q1E, V99D, A102D
VL: B10 VL with Y92A, T94E
notes: IgG1
